Experiments:
[1] = molecular target: T1, MsmTOP1 full length (topoisomerase I) (Mycobacterium smegmatis mc2 155, UniProt A0R5D9 1-936); assay: fluorescence anisotropy; Kd could not be determined; no Mg2+, 0.1 mM EDTA; Anisotropy: 50 mM Tris-HCl pH 7.5, 100 mM NaCl, 0.1 mM EDTA, room temperature; crystal: 0.1 M Tris-HCl pH 8.5, 1.5 M lithium sulfate, 16 C, protein:ssDNA 1:2; conditions: protein: recombinant; tags: His6-Mocr removed by TEV (N-terminal SNA left); label: 3' 6-carboxyfluorescein; single strand
T1 sequence: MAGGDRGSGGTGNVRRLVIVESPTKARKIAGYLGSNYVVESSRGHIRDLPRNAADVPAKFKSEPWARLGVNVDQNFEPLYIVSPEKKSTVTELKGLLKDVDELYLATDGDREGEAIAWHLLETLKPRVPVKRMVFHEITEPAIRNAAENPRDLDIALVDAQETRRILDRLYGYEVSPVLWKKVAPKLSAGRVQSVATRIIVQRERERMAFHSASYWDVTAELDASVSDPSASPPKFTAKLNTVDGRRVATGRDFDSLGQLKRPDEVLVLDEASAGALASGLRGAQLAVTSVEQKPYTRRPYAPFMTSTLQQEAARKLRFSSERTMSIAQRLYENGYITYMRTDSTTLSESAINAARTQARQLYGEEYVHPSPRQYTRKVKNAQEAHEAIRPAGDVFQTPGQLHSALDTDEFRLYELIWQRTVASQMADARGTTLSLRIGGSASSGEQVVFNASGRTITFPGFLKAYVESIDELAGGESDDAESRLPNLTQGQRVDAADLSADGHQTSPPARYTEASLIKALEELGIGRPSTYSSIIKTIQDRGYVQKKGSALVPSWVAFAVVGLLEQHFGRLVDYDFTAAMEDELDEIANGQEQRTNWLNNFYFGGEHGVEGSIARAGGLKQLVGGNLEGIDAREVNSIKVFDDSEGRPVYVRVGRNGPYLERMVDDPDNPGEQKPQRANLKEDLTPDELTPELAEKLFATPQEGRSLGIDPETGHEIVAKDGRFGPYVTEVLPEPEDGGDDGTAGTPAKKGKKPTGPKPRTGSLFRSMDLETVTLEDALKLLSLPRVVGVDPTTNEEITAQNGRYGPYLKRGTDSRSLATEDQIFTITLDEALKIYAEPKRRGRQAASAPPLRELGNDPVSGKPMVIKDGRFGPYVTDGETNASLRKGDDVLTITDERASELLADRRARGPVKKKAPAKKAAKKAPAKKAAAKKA

MsmTOP1-839t (D1-D7) = molecular target: T2, MsmTOP1-839t (D1-D7) (Mycobacterium smegmatis mc2 155, UniProt A0R5D9 1-839); assay: X-ray crystallography (3.1 A); no metal ion at active site; ssDNA at both N-terminal and D6-D7 domains; Anisotropy: 50 mM Tris-HCl pH 7.5, 100 mM NaCl, 0.1 mM EDTA, room temperature; crystal: 0.1 M Tris-HCl pH 8.5, 1.5 M lithium sulfate, 16 C, protein:ssDNA 1:2; conditions: protein: recombinant; tags: His6-Mocr removed by TEV (N-terminal SNA left); single strand; in crystal two copies pair through 5' regions (12 bp, six non-Watson-Crick pairs/mismatches)
T2 sequence: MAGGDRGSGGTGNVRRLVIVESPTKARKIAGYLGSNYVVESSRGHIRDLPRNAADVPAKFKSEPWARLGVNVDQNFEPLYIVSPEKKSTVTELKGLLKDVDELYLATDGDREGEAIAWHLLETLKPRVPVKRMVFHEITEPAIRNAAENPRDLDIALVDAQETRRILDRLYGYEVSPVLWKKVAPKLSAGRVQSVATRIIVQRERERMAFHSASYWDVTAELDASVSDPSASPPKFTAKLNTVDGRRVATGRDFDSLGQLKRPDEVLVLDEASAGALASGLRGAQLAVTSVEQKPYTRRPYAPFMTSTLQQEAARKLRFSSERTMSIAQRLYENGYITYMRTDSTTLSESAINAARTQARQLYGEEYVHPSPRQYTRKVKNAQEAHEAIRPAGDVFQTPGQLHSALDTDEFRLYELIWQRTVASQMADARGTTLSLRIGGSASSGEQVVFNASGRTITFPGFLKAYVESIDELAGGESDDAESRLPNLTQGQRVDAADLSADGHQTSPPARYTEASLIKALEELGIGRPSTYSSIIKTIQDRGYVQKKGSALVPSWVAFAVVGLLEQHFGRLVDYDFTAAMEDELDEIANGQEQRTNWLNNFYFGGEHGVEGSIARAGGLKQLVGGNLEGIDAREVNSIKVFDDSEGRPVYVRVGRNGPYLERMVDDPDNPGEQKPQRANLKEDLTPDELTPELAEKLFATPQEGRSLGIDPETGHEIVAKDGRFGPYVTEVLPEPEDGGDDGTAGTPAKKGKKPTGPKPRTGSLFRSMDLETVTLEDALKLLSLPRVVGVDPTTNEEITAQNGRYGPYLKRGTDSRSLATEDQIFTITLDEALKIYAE

MsmTOP1-701t (D1-D5) = molecular target: T3, MsmTOP1-701t (D1-D5) (Mycobacterium smegmatis mc2 155, UniProt A0R5D9 1-701); assay: fluorescence anisotropy; no Mg2+, 0.1 mM EDTA; Anisotropy: 50 mM Tris-HCl pH 7.5, 100 mM NaCl, 0.1 mM EDTA, room temperature; crystal: 0.1 M Tris-HCl pH 8.5, 1.5 M lithium sulfate, 16 C, protein:ssDNA 1:2; conditions: protein: recombinant; tags: His6-Mocr removed by TEV (N-terminal SNA left); label: 3' 6-carboxyfluorescein; single strand
T3 sequence: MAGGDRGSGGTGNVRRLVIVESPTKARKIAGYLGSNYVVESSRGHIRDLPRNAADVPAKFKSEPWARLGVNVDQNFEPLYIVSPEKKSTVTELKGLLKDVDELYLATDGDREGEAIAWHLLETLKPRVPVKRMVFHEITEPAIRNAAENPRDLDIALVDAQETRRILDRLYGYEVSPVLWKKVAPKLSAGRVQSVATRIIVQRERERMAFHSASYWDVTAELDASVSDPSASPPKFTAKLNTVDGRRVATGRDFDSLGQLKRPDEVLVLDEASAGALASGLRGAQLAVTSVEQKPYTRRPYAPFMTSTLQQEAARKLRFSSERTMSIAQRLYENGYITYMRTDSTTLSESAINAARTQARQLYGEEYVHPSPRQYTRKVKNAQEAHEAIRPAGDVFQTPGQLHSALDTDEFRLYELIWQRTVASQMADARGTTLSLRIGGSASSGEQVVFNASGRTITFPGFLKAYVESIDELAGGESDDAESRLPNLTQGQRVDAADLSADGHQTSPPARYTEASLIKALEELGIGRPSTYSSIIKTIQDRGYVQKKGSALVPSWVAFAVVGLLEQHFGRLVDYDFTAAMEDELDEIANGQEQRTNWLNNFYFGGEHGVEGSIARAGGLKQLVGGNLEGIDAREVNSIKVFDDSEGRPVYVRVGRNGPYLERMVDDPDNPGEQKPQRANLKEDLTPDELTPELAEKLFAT

[2] = molecular target: T1, MsmTOP1 full length (topoisomerase I); assay: as above; conditions: protein: recombinant; tags: His6-Mocr removed by TEV (N-terminal SNA left); label: 3' 6-carboxyfluorescein; single strand

Question: Does CTTCCGCTTGACAT (ssDNA) [MTS3-14] bind [1]?
Answer: binds

Question: Does CAGTGAGCGAGCTTCCGCTTGACTT (ssDNA) [MTS2-25] bind (MsmTOP1-839t (D1-D7))?
Answer: binds

Question: For CAGTGAGCGAGCTTCCGCTTGACATCCCAATA (ssDNA) [STS32], which Kd (MsmTOP1-701t (D1-D5)) is on record?
Answer: 14.9 nM

Question: What about the Kd [2] of the same binder?
Answer: 0.3 nM
